Test results taken from patent publication US20200040064A1 (OHIO STATE INNOVATION FOUNDATION, published 2020).

Target: T1, protein A on wild type Staphylococcus aureus newman strain bacteria (Staphylococcus aureus (newman strain), UniProt P0A015 37-419)
T1 construct: also called wt S.A; Staphylococcus aureus (wt)
Test: flow cytometry, labeled CD64 on wt S. aureus in the absence of rituximab

B1: fluorescently labeled human Fcγ receptor CD64 (receptor)
chain: QVDTTKAVITLQPPWVSVFQEETVTLHCEVLHLPGSSSTQWFLNGTATQTSTPSYRITSASVNDSGEYRCQRGLSGRSDPIQLEIHRGWLLLQVSSRVFTEGEPLALRCHAWKDKLVYNVLYYRNGKAFKFFHWNSNLTILKTNISHNGTYHCSGMGKHRYTSAGISVTVKELFPAPVLNASVTSPLLEGNLVTLSCETKLLLQRPGLQLYFSFYMGSKTLRGRNTSSEYQILTARREDSGLYWCEAATEDGNVLKRSPELELQVLGLQLPTP
modifications: fluorescently labeled
**Q.** Does B1 bind?
**A.** Result: no binding
